Laboratory results reported in publication PMC5554461.

Target: soluble 2-domain CD4 (2dCD4)
Experiment: BLI

**Q.** “YU2(R456K).SOSIP.664 (from UniProt P35961 499-843) (complex)” was tested. Which fold reduction of the on-rate against YU2.SOSIP.664 did it give?
**A.** The fold reduction of the on-rate against YU2.SOSIP.664 was 2 fold.
